Experimental data: patent US20240261333A1, “NOVEL TARGETS FOR ENHANCING ANTI-TUMOR IMMUNITY” (THE BROAD INSTITUTE, INC., priority 2021, published 2024)

T1: B3GNT2 (Homo sapiens, UniProt Q9NY97)
T1 construct: The respective ORFs of candidate genes [CD274 (NM_014143), MCL1 (NM_021960), JUNB (NM_002229), and B3GNT2 (NM_006577)] were synthesized; expressed in transfected cells; host or cells: A375 melanoma cells (lentiviral ORF overexpression)
T1 sequence (Q9NY97 1-397): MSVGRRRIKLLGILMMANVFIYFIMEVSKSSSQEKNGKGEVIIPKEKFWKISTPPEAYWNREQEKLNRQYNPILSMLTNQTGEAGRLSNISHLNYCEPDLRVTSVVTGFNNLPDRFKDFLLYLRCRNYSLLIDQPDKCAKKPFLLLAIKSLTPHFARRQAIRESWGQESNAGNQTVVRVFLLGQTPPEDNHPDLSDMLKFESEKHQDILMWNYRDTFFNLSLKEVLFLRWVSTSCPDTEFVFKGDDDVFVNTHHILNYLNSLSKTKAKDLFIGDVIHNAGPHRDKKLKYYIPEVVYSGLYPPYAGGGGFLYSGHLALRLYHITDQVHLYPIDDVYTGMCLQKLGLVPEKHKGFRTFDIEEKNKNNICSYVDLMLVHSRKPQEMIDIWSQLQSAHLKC


Target: T1, B3GNT2
Test: Co-IP of FLAG-tagged B3GNT2 followed by mass spectrometry
Type: cell-based
Design: C-term IgG / C-term flag: unit not given here
How it was run: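 FLAG-tagged B3GNT2 immunoprecipitated from cell lysate (HEPES, 1% Triton X-100, 150 mM NaCl) with anti-FLAG versus […], overnight at 4° C, then captured on Protein A/G magnetic beads for 4 h. Two biological replicates per condition. Peptides fractionated and analyzed by nano-LC on an Orbitrap Elite in data-dependent mode.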

[1] = Co-IP followed by mass spectrometry of B3GNT2, C-term tag, FLAG pull-down
[2] = Co-IP followed by mass spectrometry of B3GNT2, C-term tag, IgG pull-down
[3] = Co-IP followed by mass spectrometry of B3GNT2, N-term tag, FLAG pull-down
[4] = Co-IP followed by mass spectrometry of B3GNT2, N-term tag, IgG pull-down
[5] = Co-IP with FLAG antibody, C-terminally FLAG-tagged B3GNT2, mass spectrometry count, unit not given
[6] = Co-IP with FLAG antibody, N-terminally FLAG-tagged B3GNT2, mass spectrometry count, unit not given
[7] = Co-IP with IgG control antibody, C-terminally FLAG-tagged B3GNT2, mass spectrometry count, unit not given
[8] = Co-IP with IgG control antibody, N-terminally FLAG-tagged B3GNT2, mass spectrometry count, unit not given

| Molecule | C-term flag [1] | C-term IgG [2] | N-term FLAG [3] | N-term IgG [4] | C-term flag [5] | N-term FLAG [6] | C-term IgG [7] | N-term IgG [8] |
| --- | --- | --- | --- | --- | --- | --- | --- | --- |
| CPSF6 (protein) MADGVDHIDIYADVGEEFNQEAEYGGHDQIDLYDDVISPSANNGDAPEDRDYMDTLPPTVGDDVGKGAAPNVVYTYTGKRIALYIGNLTWWTTDEDLTEAVHSLGVNDILEIKFFENRANGQSKGFALVGVGSEASSKKLMDLLPKRELHGQNPVVTPCNKQFLSQFEMQSRKTTQSGQMSGEGKAGPPGGSSRAAFPQGGRGRGRFPGAVPGGDRFPGPAGPGGPPPPFPGNLIKHLVKGTRPLFLETRIPWHMGHSIEEIPIFGLKAGQTPPRPPLGPPGPPGPPGPPPPGQVLPPPLAGPPNRGDRPPPPVLFPGQPFGQPPLGPLPPGPPPPVPGYGPPPGPPPPQQGPPPPPGPFPPRPPGPLGPPLTLAPPPHLPGPPPGAPPPAPHVNPAFFPPPTNSGMPTSDSRGPPPTDPYGRPPPYDRGDYGPPGREMDTARTPLSEAEFEEIMNRNRAISSSAISRAVSDASAGDYGSAIETLVTAISLIKQSKVSADDRCKVLISSLQDCLHGIESKSYGSGSRRERSRERDHSRSREKSRRHKSRSRDRHDDYYRERSRERERHRDRDRDRDRERDREREYRHR | 35 | 33 | 30 | 28 | – | – | – | – |
| RBM39 (protein) ADDIDIEAMLEAPYKKDENKLSSANGHEERSKKRKKSKSRSRSHERKRSKSKERKRSRDRERKKSKSRERKRSRSKERRRSRSRSRDRRFRGRYRSPYRRRSRSKSPFRKDKSPVREPIDNLTPEERDARTVFCMQLAARIRPRDLEEFFSTVGKVRDVRMISDRNSRRSKGIAYVEFVDVSSVPLAIGLTGQRVLGVPIIVQASQAEKNRAAAMANNLQKGSAGPMRLYVGSLHFNITEDMLRGIFEPFGRIESIQLMMDSETGRSKGYGFITFSDSECAKKALEQLNGFELAGRPMKVGHVTERTDASSASSFLDSDELERTGIDLGTTGRLQLMARLAEGTGLQIPPAAQQALQMSGSLAFGAVAEFSFVIDLQTRLSQQTEASALAAAASVQPLATQCFQLSNMFNPQTEEEVGWDTEIKDDVIEECNKHGGVIHIYVDKNSAQGNVYVKCPSIAAAIAAVNALHGRWFAGKMITAAYVPLPTYHNLFPDSMTATQLLVPSRR | 5 | 3 | 4 | 5 | – | – | – | – |
| CSE1L (protein) MELSDANLQTLTEYLKKTLDPDPAIRRPAEKFLESVEGNQNYPLLLLTLLEKSQDNVIKVCASVTFKNYIKRNWRIVEDEPNKICEADRVAIKANIVHLMLSSPEQIQKQLSDAISIIGREDFPQKWPDLLTEMVNRFQSGDFHVINGVLRTAHSLFKRYRHEFKSNELWTEIKLVLDAFALPLTNLFKATIELCSTHANDASALRILFSSLILISKLFYSLNFQDLPEFFEDNMETWMNNFHTLLTLDNKLLQTDLVSNAIQFLASVCERPHYKNLFEDQNTLTSICEKVIVPNMEFRAADEEAFEDNSEEYIRRDLEGSDIDTRRRAACDLVRGLCKFFEGPVTGIFSGYVNSMLQEYAKNPSVNWKHKDAAIYLVTSLASKAQTQKHGITQANELVNLTEFFVNHILPDLKSANVNEFPVLKADGIKYIMIFRNQVPKEHLLVSIPLLINHLQAESIVVHTYAAHALERLFTMRGPNNATLFTAAEIAPFVEILLTNLFKALTLPGSSENEYIMKAIMRSFSLLQEAIIPYIPTLITQLTQKLLAVSKNPSKPHFNHYMFEAICLSIRITCKANPAAVVNFEEALFLVFTEILQNDVQEFIPYVFQVMSLLLETHKNDIPSSYMALFPHLLQPVLWERTGNIPALVRLLQAFLERGSNTIASAAADKIPGLLGVFQKLIASKANDHQGFYLLNSIIEHMPPESVDQYRKQIFILLFQRLQNSKTTKFIKSFLVFINLYCIKYGALALQEIFDGIQPKMFGMVLEKIIIPEIQKVSGNVEKKICAVGITKLLTECPPMMDTEYTKLWTPLLQSLIGLFELPEDDTIPDEEHFIDIEDTPGYQTAFSQLAFAGKKEHDPVGQMVNNPKIHLAQSLHKLSTACPGRVPSMVSTSLNAEALQYLQGYLQAASVTLL | 3 | 0 | 0 | 0 | – | – | – | – |
| DDOST (protein) SGPRTLVLLDNLNVRETHSLFFRSLKDRGFELTFKTADDPSLSLIKYGEFLYDNLIIFSPSVEDFGGNINVETISAFIDGGGSVLVAASSDIGDPLRELGSECGIEFDEEKTAVIDHHNYDISDLGQHTLIVADTENLLKAPTIVGKSSLNPILFRGVGMVADPDNPLVLDILTGSSTSYSFFPDKPITQYPHAVGKNTLLIAGLQARNNARVIFSGSLDFFSDSFFNSAVQKAAPGSQRYSQTGNYELAVALSRWVFKEEGVLRVGPVSHHRVGETAPPNAYTVTDLVEYSIVIQQLSNGKWVPFDGDDIQLEFVRIDPFVRTFLKKKGGKYSVQFKLPDVYGVFQFKVDYNRLGYTHLYSSTQVSVRPLQHTQYERFIPSAYPYYASAFSMMLGLFIFSIVFLHMKEKEKSD | – | – | – | – | 3 | 0 | 0 | 0 |
| HADHB (protein) AAPAVQTKTKKTLAKPNIRNVVVVDGVRTPFLLSGTSYKDLMPHDLARAALTGLLHRTSVPKEVVDYIIFGTVIQEVKTSNVAREAALGAGFSDKTPAHTVTMACISANQAMTTGVGLIASGQCDVIVAGGVELMSDVPIRHSRKMRKLMLDLNKAKSMGQRLSLISKFRFNFLAPELPAVSEFSTSETMGHSADRLAAAFAVSRLEQDEYALRSHSLAKKAQDEGLLSDVVPFKVPGKDTVTKDNGIRPSSLEQMAKLKPAFIKPYGTVTAANSSFLTDGASAMLIMAEEKALAMGYKPKAYLRDFMYVSQDPKDQLLLGPTYATPKVLEKAGLTMNDIDAFEFHEAFSGQILANFKAMDSDWFAENYMGRKTKVGLPPLEKFNNWGGSLSLGHPFGATGCRLVMAAANRLRKEGGQYGLVAACAAGGQGHAMIVEAYPK | 3 | 0 | 0 | 0 | – | – | – | – |
| CHCHD6 (protein) GSTESSEGRRVSFGVDEEERVRVLQGVRLSENVVNRMKEPSSPPPAPTSSTFGLQDGNLRAPHKESTLPRSGSSGGQQPSGMKEGVKRYEQEHAAIQDKLFQVAKREREAATKHSKASLPTGEGSISHEEQKSVRLARELESREAELRRRDTFYKEQLERIERKNAEMYKLSSEQFHEAASKMESTIKPRRVEPVCSGLQAQILHCYRDRPHEVLLCSDLVKAYQRCVSAAHKG | – | – | – | – | 3 | 0 | 0 | 0 |

The remaining lines, values ahead:

| C-term flag [1] | C-term IgG [2] | N-term FLAG [3] | N-term IgG [4] | C-term flag [5] | N-term FLAG [6] | C-term IgG [7] | N-term IgG [8] | Molecule |
| --- | --- | --- | --- | --- | --- | --- | --- | --- |
| 3 | 0 | 0 | 0 | – | – | – | – | SRP14 (protein) VLLESEQFLTELTRLFQKCRTSGSVYITLKKYDGRTKPIPKKGTVEGFEPADNKCLLRATDGKKKISTVVSSKEVNKFQMAYSNLLRANMDGLKKRDKKNKTKKTKAAAAAAAAAPAAAATAPTTAATTAATAAQ |
| 3 | 0 | 0 | 0 | – | – | – | – | TIMP3 (protein) CTCSPSHPQDAFCNSDIVIRAKVVGKKLVKEGPFGTLVYTIKQMKMYRGFTKMPHVQYIHTEASESLCGLKLEVNKYQYLLTGRVYDGKMYTGLCNFVERWDQLTLSQRKGLNYRYHLGCNCKIKSCYYLPCFVTSKNECLWTDMLSNFGYPGYQSKHYACIRQKGGYCSWYRGWAPPDKSIINATDP |
| 10 | 5 | 0 | 4 | – | – | – | – | SERBP1 (protein) PGHLQEGFGCVVTNRFDQLFDDESDPFEVLKAAENKKKEAGGGGVGGPGAKSAAQAAAQTNSNAAGKQLRKESQKDRKNPLPPSVGVVDKKEETQPPVALKKEGIRRVGRRPDQQLQGEGKIIDRRPERRPPRERRFEKPLEEKGEGGEFSVDRPIIDRPIRGRGGLGRGRGGRGRGMGRGDGFDSRGKREFDRHSGSDRSSFSHYSGLKHEDKRGGSGSHNWGTVKDELTESPKYIQKQISYNYSDLDQSNVTEETPEGEEHHPVADTENKENEVEEVKEEGPKEMTLDEWKAIQNKDRAKVEFNIRKPNEGADGQWKKGFVLHKSKSEEAHAEDSVMDHHFRKPANDITSQLEINFGDLGRPGRGGRGGRGGRGRGGRPNRGSRTDKSSASAPDVDDPEAFPALA |
